# Patent US20140123330
# Tested on: btGDF83.1 TALEN pair (synthetic (TALE-FokI))
# Assay: cell_activity
# Conditions: SURVEYOR; bovine fibroblasts; active at 30 and 37 C; pair called btGDF8.1 and btGDF83.1
substance,measurement,value
bovine GDF8 exon 3 target,activity (% chromosomes cleaved),< 16
